Test results as given in patent EP1605964B1 (GEORG-SPEYER-HAUS CHEMOTHERAPEUTISCHES FORSCHUNGSINSTITUT, dated 2004).

B1: peptide aptamer KDI1 (SEQ ID NO:1), displayed in E. coli thioredoxin A (TrxA) (designed binder, not shown: large carriers)
chain: MSDKIIHLTDDSFDTDVLKADGAILVDFWAEWCGVFGVSWVVGFWCQMHRRLVCPCKMIAPILDEIADEYQGKLTVAKLNIDQNPGTAPKYGIRGIPTLLLFKNGEVAATKVGALSKGQLKEFLDANLA
notes: The construct used in the GST pulldown is not described
B2: peptide aptamer KDI3 (SEQ ID NO:2), displayed in E. coli thioredoxin A (TrxA) (designed binder, not shown: large carriers)
chain: MSDKIIHLTDDSFDTDVLKADGAILVDFWAEWCGTFSPVVLLYRLFLATVLIWAPCKMIAPILDEIADEYQGKLTVAKLNIDQNPGTAPKYGIRGIPTLLLFKNGEVAATKVGALSKGQLKEFLDANLA
notes: Built as the yeast two-hybrid prey; The construct used in the GST pulldown is not described
B3: peptide aptamer KDI4 (SEQ ID NO:3), displayed in E. coli thioredoxin A (TrxA) (designed binder, not shown: large carriers)
chain: MSDKIIHLTDDSFDTDVLKADGAILVDFWAEWCGLSFQLSPLSLVHRWGTTVDVPCKMIAPILDEIADEYQGKLTVAKLNIDQNPGTAPKYGIRGIPTLLLFKNGEVAATKVGALSKGQLKEFLDANLA
notes: as for B2

Molecular target: T1, Gal4 DNA binding domain alone (UniProt P04386 1-147)
T1 construct: Negative control bait in the yeast two-hybrid retransformation
Experiment: yeast two-hybrid, retransformation of rescued plasmids

T1 sequence (P04386 1-147 limits assumed): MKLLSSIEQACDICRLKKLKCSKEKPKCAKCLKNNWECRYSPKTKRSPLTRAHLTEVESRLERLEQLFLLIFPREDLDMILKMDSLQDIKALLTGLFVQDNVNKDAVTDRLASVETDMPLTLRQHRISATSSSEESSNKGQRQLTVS

Binder | binding result
B1 | no binding
B2 | no binding
B3 | no binding
